This note sets out measurements from patent US20080219983A1 (TRIMESTER CUSHION, published 2008).

To fix the notation:
B1: Synthetic peptide FVIII Lys^1804-Lys^1818 (peptide)
peptide: KNFVKPNETKTYFWK
B2: scFv KM41 (scFv)
scFv: QVQLLQSAADVKKPGASVKVSCTASGYIFTSYDIDWVRQATGQGLEWMGWMNPNSGNAGFAQKFKGRLTLTRDTSTSTAYMELRRLESEDTAVYYCARSTPHSYSGSGLPPTSDSWGQGTLVTVSSGGGGSGGGGSGGGGSEIVLTQSPGTLSLSPGERATLSCRASQSVSSSFLGWYQQKPGQAPRLLIYGASSRATGIPDRFSGSGSGTDFTLTISRLEPEDFAVYYCQQYGISPLTFGGGTKLEIKRAAAEQKLISEEDLNGAAHHHHHH
notes: Expressed in E. coli TG1
B3: Plasma-derived FVIII light chain (other, UniProt P00451 1668-2351, looked up)
chain: EITRTTLQSDQEEIDYDDTISVEMKKEDFDIYDEDENQSPRSFQKKTRHYFIAAVERLWDYGMSSSPHVLRNRAQSGSVPQFKKVVFQEFTDGSFTQPLYRGELNEHLGLLGPYIRAEVEDNIMVTFRNQASRPYSFYSSLISYEEDQRQGAEPRKNFVKPNETKTYFWKVQHHMAPTKDEFDCKAWAYFSDVDLEKDVHSGLIGPLLVCHTNTLNPAHGRQVTVQEFALFFTIFDETKSWYFTENMERNCRAPCNIQMEDPTFKENYRFHAINGYIMDTLPGLVMAQDQRIRWYLLSMGSNENIHSIHFSGHVFTVRKKEEYKMALYNLYPGVFETVEMLPSKAGIWRVECLIGEHLHAGMSTLFLVYSNKCQTPLGMASGHIRDFQITASGQYGQWAPKLARLHYSGSINAWSTKEPFSWIKVDLLAPMIIHGIKTQGARQKFSSLYISQFIIMYSLDGKKWQTYRGNSTGTLMVFFGNVDSSGIKHNIFNPPIIARYIRLHPTHYSIRSTLRMELMGCDLNSCSMPLGMESKAISDAQITASSYFTNMFATWSPSKARLHLQGRSNAWRPQVNNPKEWLQVDFQKTMKVTGVTTQGVKSLLTSMYVKEFLISSSQDGHQWTLFFQNGKVKVFQGNQDSFTPVVNSLDPPLLTRYLRIHPQSWVHQIALRMEVLGCEAQDLY
notes: domain: light chain (a3-A3-C1-C2); Prepared from plasma as in the cited literature; Human by context (the peptides are said to cover human FVIII regions); Residue numbers count on mature FVIII, without the signal peptide; also called LCh; 80-kDa light chain (a3-A3-C1-C2)
B4: Synthetic peptide FVIII Tyr^1815-Ala^1834 (peptide)
peptide: YFWKVQHHMAPTKDEFDCKA
B5: Recombinant LRP cluster II (receptor, UniProt Q07954 805-1184, looked up)
chain: NKCRVNNGGCSSLCLATPGSRQCACAEDQVLDADGVTCLANPSYVPPPQCQPGEFACANSRCIQERWKCDGDNDCLDNSDEAPALCHQHTCPSDRFKCENNRCIPNRWLCDGDNDCGNSEDESNATCSARTCPPNQFSCASGRCIPISWTCDLDDDCGDRSDESASCAYPTCFPLTQFTCNNGRCININWRCDNDNDCGDNSDEAGCSHSCSSTQFKCNSGRCIPEHWTCDGDNDCGDYSDETHANCTNQATRPPGGCHTDEFQCRLDGLCIPLRWRCDGDTDCMDSSDEKSCEGVTHVCDPSVKFGCKDSARCISKAWVCDGDNDCEDNSDEENCESLACRPPSHPCANNTSVCLPPDKLCDGNDDCGDGSDEGELCDQ
notes: domain: cluster II
B6: Synthetic peptide FVIII Asp^2108-Gly^2117 (peptide)
peptide: DGKKWQTYRG
notes: also called 2108-2117

Changes are numbered by the printed parent chain.

Assay [1] has as its target Purified placenta-derived low-density lipoprotein receptor-related protein (LRP) (UniProt Q07954). Put plainly: SPR, immobilised LRP, two-site model, site class 1.
Assay [2] has the same target. The experiment in a line: SPR, immobilised LRP, two-site model, site class 2.
Assay [3] shares this target. The experiment in a line: SPR, immobilised LRP, steady-state affinity analysis.
In assay [4] the target is B5. The experiment in a line: solid-phase competition: peptide against FVIII light chain (25 nM) binding to immobilised LRP cluster II. The protocol: (§1) Solid-phase Binding Assays—Recombinant LRP clusters II or IV (1 pmol/well) were adsorbed onto microtiter wells in 50 mM NaHCO₃ (pH 9.8) in a volume of 50 μl for 16 h at 4° C. Wells were blocked with 2% (w/v) HSA, 150 mM NaCl, 5 mM CaCl₂, and 50 mM Tris (pH 7.4) in a volume of 200 μl for 1 h at 37° C. […] Bound ligand was detected by incubating with peroxidase-conjugated monoclonal antibody CLB-CAg 12 in the same buffer for 15 min at 37° C. […] Residual FVIII binding was detected as described above.
Half-maximum inhibition constants (IC₅₀) represent the mean values ±S.D. of three experiments.)

Assay [5] deals with T1, Recombinant FVIII/FV^1811-1818 light chain chimera (UniProt P00451 1668-2351).
T1 construct: domain: light chain (a3-A3-C1-C2); The single substitutions were worked out from the two printed octapeptides; In the assays it was captured on immobilised scFv EL14
T1 sequence: B3 chain with E163S, T164S, K165Y, F168V, K170H
Put plainly: SPR (BIAcore), FVIII/FV1811-1818 light chain chimera captured at 20 fmol/mm2 on immobilised scFv EL14, scFv KM41 40 nM as analyte.
Protocol: Response is indicated as Resonance Units (RU) and is corrected for nonspecific binding.
(§2) Surface Plasmon Resonance—The kinetics of protein interactions was determined by surface plasmon resonance (SPR) analysis, employing a BIAcore™2000 biosensor system (Biacore AS, Uppsala, Sweden). […] One control flow-channel was routinely activated and blocked in the absence of protein. […] Dissociation was allowed for 2 min in the same buffer flow. Sensor-chips were regenerated using several pulses of either 100 mM H₃PO₄ or 20 mM EDTA, 1 M NaCl, and 50 mM Hepes (pH 7.4) at a flow rate of 20 μl/min. The association (kₒₙ) and dissociation (koff) rate constants were determined by using the BIAevaluation software 3.1 (Biacore AB, Uppsala, Sweden). Data were corrected for bulk refractive index changes and fitted by nonlinear regression analysis according to a two-site binding model. Equilibrium dissociation constants (kd) were calculated from the ratio koff/kₒₙ. The kd value for low-affinity interactions was estimated using steady-state affinity analysis by using BIAevaluation software.

Assay [6] has as its target B3. The experiment in a line: solid-phase competition assay: FVIII light chain (25 nM) on immobilised LRP cluster II (1 pmol/well) in the presence of scFv KM41 (0-100 nM); detection with peroxidase-conjugated CLB-CAg 12. Here is the method:
FIG. 4. […] Data represent the mean ±S.D. of three experiments. […] Complexes were allowed to form for 30 min before SPR analysis.
as §1

Assay [7] concerns the target B5. The experiment in a line: solid-phase binding assay: serial dilutions of FVIII light chain on immobilised LRP cluster II (1 pmol/well); detection with peroxidase-conjugated CLB-CAg 12. Here is the method: FIG. 2. […] Data represent the mean ±S.D. of three experiments
as §1

The target of a further assay is T2, Factor Va light chain (human, UniProt P12259 1574-2224).
T2 construct: domain: FVa light chain; also called FVa light chain
T2 sequence (looked up): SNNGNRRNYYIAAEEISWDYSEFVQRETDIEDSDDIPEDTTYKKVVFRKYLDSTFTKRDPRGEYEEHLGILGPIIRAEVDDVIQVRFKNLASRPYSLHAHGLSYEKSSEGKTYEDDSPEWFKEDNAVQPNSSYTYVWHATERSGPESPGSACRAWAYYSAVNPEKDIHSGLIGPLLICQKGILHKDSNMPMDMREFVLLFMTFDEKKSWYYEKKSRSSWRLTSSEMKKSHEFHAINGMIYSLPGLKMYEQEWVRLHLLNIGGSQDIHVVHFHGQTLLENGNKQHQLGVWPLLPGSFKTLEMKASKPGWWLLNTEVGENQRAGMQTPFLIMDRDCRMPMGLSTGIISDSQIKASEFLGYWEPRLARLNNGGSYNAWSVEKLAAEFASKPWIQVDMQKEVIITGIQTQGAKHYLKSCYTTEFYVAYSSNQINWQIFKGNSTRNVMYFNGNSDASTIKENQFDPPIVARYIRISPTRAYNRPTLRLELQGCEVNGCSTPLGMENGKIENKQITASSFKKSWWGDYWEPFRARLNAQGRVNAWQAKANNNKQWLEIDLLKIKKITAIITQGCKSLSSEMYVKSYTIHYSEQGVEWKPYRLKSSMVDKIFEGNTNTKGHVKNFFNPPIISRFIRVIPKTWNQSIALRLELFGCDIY
Put plainly: SPR (BIAcore), FVa light chain immobilised at 76 fmol/mm2, LRP cluster II 100 nM as analyte.

Sequence of Purified placenta-derived low-density lipoprotein receptor-related protein (LRP) (Q07954 20-4544, form in doubt): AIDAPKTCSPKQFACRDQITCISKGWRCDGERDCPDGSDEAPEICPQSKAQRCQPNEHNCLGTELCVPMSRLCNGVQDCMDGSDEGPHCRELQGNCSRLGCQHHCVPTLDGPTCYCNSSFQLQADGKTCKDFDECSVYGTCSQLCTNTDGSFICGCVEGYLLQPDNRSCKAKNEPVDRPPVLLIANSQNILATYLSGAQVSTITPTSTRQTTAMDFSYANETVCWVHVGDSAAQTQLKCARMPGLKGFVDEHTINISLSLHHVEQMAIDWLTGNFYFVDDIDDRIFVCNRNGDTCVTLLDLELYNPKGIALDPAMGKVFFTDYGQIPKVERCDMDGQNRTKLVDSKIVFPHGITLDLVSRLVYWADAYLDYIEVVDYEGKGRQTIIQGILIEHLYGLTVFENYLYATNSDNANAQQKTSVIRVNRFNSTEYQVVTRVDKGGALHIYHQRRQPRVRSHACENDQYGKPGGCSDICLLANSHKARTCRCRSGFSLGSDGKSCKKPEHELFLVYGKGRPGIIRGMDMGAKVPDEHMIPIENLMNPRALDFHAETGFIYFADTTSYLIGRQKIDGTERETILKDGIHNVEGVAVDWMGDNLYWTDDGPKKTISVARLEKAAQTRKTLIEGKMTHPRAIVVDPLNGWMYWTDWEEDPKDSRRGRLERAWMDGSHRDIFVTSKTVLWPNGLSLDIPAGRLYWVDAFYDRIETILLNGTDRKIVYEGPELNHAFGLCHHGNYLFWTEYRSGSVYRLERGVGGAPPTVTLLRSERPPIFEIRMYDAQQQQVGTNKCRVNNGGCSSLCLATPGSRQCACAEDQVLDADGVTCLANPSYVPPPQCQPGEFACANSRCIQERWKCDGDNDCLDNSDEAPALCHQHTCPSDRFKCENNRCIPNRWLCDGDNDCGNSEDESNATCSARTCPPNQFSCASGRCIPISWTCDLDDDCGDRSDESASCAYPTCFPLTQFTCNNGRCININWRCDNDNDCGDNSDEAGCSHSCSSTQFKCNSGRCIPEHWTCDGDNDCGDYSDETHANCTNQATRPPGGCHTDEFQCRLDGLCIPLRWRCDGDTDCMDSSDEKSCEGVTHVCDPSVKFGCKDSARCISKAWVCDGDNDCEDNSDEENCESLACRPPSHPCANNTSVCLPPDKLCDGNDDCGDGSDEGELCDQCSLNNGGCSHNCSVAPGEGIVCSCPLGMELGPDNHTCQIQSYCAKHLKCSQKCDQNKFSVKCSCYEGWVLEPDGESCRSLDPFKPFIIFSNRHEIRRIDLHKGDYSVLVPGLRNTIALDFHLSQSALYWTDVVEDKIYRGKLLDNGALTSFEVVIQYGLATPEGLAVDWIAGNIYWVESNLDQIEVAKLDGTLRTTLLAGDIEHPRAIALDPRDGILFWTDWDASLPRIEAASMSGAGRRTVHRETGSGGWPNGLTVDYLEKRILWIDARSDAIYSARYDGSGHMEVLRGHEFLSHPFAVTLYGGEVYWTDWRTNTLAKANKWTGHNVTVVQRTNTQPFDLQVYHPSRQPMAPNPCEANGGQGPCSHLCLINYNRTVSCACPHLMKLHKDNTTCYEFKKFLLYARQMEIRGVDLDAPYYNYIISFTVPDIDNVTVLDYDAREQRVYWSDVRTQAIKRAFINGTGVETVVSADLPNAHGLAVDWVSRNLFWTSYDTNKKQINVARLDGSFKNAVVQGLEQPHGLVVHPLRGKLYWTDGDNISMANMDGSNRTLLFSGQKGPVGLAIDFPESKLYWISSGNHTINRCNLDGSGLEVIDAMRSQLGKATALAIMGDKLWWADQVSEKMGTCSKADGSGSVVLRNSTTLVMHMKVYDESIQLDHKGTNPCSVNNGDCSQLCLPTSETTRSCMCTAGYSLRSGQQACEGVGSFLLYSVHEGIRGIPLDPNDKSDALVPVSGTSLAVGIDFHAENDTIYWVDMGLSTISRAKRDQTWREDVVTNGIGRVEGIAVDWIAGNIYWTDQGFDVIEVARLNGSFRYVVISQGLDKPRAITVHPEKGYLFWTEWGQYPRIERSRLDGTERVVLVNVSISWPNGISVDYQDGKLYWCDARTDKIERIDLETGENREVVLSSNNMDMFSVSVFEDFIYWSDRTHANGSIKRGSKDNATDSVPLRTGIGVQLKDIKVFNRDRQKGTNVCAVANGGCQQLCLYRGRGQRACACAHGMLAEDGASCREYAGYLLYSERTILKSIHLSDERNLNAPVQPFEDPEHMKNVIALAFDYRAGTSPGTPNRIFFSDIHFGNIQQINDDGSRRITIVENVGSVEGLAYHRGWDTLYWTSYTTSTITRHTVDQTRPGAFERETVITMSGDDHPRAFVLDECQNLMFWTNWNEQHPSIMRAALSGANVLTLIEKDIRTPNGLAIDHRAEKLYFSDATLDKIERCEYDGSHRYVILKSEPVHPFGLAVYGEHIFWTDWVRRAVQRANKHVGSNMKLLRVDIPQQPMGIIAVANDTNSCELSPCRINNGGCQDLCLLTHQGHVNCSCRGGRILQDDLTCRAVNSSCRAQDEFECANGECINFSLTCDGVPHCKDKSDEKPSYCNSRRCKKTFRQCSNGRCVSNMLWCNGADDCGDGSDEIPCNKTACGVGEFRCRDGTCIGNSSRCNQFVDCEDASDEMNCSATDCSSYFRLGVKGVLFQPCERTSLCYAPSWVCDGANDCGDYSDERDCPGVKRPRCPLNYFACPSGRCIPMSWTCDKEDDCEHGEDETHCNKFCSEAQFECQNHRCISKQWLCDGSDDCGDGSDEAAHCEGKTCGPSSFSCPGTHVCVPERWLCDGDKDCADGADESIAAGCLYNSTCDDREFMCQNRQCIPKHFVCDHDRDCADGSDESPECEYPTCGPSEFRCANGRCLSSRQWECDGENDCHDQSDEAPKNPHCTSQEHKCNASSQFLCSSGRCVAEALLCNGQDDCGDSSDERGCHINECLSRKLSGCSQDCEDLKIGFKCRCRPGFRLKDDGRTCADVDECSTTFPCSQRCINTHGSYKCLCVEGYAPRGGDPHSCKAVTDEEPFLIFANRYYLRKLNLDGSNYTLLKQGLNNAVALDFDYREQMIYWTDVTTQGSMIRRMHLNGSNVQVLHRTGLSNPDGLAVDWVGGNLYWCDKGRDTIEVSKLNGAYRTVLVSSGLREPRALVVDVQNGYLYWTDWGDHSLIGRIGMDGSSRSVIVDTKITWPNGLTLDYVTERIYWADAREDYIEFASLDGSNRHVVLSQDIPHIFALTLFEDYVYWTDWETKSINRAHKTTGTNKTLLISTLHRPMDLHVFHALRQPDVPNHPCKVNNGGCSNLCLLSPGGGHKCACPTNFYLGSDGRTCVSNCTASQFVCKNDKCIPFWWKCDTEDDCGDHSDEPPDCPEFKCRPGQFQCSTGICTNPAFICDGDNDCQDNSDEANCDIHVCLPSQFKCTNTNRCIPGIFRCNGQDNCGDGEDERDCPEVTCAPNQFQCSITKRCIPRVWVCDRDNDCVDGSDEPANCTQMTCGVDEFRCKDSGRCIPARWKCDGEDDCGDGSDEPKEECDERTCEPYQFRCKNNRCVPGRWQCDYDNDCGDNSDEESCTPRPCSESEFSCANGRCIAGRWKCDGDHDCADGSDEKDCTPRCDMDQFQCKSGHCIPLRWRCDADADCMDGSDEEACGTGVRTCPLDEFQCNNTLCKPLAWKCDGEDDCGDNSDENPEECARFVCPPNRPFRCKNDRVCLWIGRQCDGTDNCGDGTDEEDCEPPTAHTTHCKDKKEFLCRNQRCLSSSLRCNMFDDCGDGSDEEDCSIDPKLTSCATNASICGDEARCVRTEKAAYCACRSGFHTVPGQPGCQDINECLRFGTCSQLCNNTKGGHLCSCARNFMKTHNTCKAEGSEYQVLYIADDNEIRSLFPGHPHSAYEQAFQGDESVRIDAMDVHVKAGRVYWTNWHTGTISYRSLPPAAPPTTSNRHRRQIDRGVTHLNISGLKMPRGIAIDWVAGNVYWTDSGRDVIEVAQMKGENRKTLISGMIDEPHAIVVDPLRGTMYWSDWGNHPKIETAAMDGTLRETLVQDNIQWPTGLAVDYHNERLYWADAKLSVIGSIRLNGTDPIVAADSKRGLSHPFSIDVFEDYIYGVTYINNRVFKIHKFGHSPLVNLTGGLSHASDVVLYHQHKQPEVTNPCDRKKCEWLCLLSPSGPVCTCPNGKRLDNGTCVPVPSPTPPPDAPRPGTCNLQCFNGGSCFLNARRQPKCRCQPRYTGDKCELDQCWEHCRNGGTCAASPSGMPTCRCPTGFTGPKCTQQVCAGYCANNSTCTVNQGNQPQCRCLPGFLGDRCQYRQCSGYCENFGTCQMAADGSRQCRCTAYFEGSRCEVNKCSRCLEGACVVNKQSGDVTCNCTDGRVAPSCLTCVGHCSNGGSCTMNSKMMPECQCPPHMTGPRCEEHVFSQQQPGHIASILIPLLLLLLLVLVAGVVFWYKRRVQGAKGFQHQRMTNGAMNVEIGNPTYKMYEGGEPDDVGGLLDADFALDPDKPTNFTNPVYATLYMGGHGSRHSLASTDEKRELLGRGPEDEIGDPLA
Protocol for Factor Va light chain: Response is indicated as Resonance Units (RU) and is corrected for nonspecific binding, which was less than 5% relative to coated channels.
as §2

Take “Recombinant FVIII a3-A3-C1 fragment (from UniProt P00451 1668-2191)”: in assay [1], the equilibrium dissociation constant (Kd) was 26 nM, the koff came out at 0.0041 s⁻¹ and the kon was determined as 160000 M⁻¹ s⁻¹. In assay [2], this molecule showed a Kd of 74 nM, a koff of 0.08 s⁻¹ and a kon of 1.1e+06 M⁻¹ s⁻¹.
In turn, “Recombinant FVIII C2 domain (from UniProt P00451 2192-2351)” had a Kd in assay [3] of 3400 nM.
On to “Factor Xa-cleaved FVIII light chain (from UniProt P00451 1741-2351)”, for which, in assay [1], the Kd amounted to 22 nM, the koff was 0.003 s⁻¹ and the kon was 130000 M⁻¹ s⁻¹. In assay [2], the Kd was found to be 60 nM, the koff turned out to be 0.056 s⁻¹ and the kon was 900000 M⁻¹ s⁻¹.
With B1, the IC50 in assay [4] was 1900 nM.
Turning to B2, the binding result in assay [5] is listed as “no binding (tested: 40 nM)”. For the same molecule, the “IC50 (read off the curve)” value in assay [6] is roughly 7 nM.
With B3, the “EC50 (read off the curve)” value in assay [7] is roughly 20 nM. The Kd was 18 nM in assay [1] and 59 nM in assay [2].
Regarding B4, the IC50 in assay [4] amounted to 16800 nM.
Turning to B5, the binding result with Factor Va light chain is “no binding (tested: 100 nM)”.
Turning to B6, the IC50 in assay [4] came out at 900000 nM.
